Reference: paper PMC5668902

Substrate: O=C(O)C(=O)O
Assay: purified protein
Conditions: pH 4.2 acetate buffer, 25 °C, free enzyme, not immobilised

B1: Oxalate decarboxylase (OxDC), wild type, His6-tagged (Bacillus subtilis subsp. subtilis str. 168) (protein)
chain: MKKQNDIPQPIRGDKGATVKIPRNIERDRQNPDMLVPPETDHGTVSNMKFSFSDTHNRLEKGGYAREVTVRELPISENLASVNMRLKPGAIRELHWHKEAEWAYMIYGSARVTIVDEKGRSFIDDVGEGDLWYFPSGLPHSIQALEEGAEFLLVFDDGSFSENSTFQLTDWLAHTPKEVIAANFGVTKEEISNLPGKEKYIFENQLPGSLKDDIVEGPNGEVPYPFTYRLLEQEPIESEGGKVYIADSTNFKVSKTIASALVTVEPGAMRELHWHPNTHEWQYYISGKARMTVFASDGHARTFNYQAGDVGYVPFAMGHYVENIGDEPLVFLEIFKDDHYADVSLNQWLAMLPETFVQAHLDLGKDFTDVLSKEKHPVVKKKCSK
Km: 12 ± 3 mM
kcat: 158 ± 13 s⁻¹
kcat/Km: 13000 ± 3000 M⁻¹ s⁻¹
